± gives the half width of the 95% confidence interval.
What was measured:
[1] = folding stability dG unfold (combined trypsin and chymotrypsin); higher = more stable
How it was run: (§1)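 Designed mini-proteins (under 80 residues, no cysteine) in a PA-tagged cDNA display construct were digested with trypsin and chymotrypsin. Each protease was used at 11 concentrations (threefold dilutions) plus a no-protease condition, followed by sequencing. K50 was inferred by Bayesian fitting of sequencing counts, and unfolding free energy was derived against a sequence-predicted unfolded-state K50 and a shared folded-state K50, per protease or combined. Only designs with AlphaFold2 dimer inter-PAE above 15 were kept.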

[2] = folding stability dG unfold from chymotrypsin proteolysis; higher = more stable
How it was run: as §1

[3] = folding stability dG unfold from trypsin proteolysis; higher = more stable
How it was run: as §1

Sequence	folding stability dG unfold [1]	folding stability dG unfold [2]	folding stability dG unfold [3]
SAGGSAGGSAGGPNIKIKDVHEHPPEDGNPIVMFEIKAKDDDGEKVYIIITPDKIHIMPISAGGSAGGSAGG [r7_960_TrROS]	0.927 ± 0.21 kcal/mol	1.15 ± 0.21 kcal/mol	1 ± 0.07 kcal/mol
SAGGSAGGSAGGPNPDMKFEIVTIKVPPDEVPKSEPIEDPDGHNFFLHFDGNTYTIWRMDSAGGSAGGSAGG [r7_97_TrROS]	0.933 ± 0.23 kcal/mol	1.39 ± 0.42 kcal/mol	0.987 ± 0.086 kcal/mol
SAGGSAGGSAGGPPGAVERGYLVVRFRVYRPEPAEPVGELTVYVRVPPPEPEEDGSFRFHSAGGSAGGSAGG [r7_959_TrMRF]	2.24 ± 0.086 kcal/mol	2.39 ± 0.068 kcal/mol	1.98 ± 0.025 kcal/mol
SAGGSAGGSAGGPPLKVTEVETHKHPNGHRYVTMTLRPPNGGPVTIMFDPNNGKIQIMISAGGSAGGSAGGS [r10_1218_TrROS]	2.94 ± 0.24 kcal/mol	3.35 ± 0.19 kcal/mol	2.19 ± 0.13 kcal/mol
SAGGSAGGSAGGPPVLAESTFSFPDGVTVRLAFLPDGKAIAELTPPDGSKIEVEFDVDASAGGSAGGSAGGS [r10_1184_TrMRF]	0.189 ± 0.23 kcal/mol	0.203 ± 0.14 kcal/mol	-0.214 ± 0.11 kcal/mol
SAGGSAGGSAGGPPYEVNIYIKFRPPDGKPPTFPIDVNVNDPEDAKDELEDNFPNMEIVSAGGSAGGSAGGS [r10_1248_TrROS]	0.919 ± 0.23 kcal/mol	0.996 ± 0.15 kcal/mol	0.592 ± 0.051 kcal/mol
SAGGSAGGSAGGPSPSTPVTVTVTFPETGETVTLEVTDLEELRERFPDRPVEITVSPGGSAGGSAGGSAGGS [r10_1004_JUSTAS]	2.42 ± 0.06 kcal/mol	2.11 ± 0.041 kcal/mol	2.5 ± 0.064 kcal/mol
SAGGSAGGSAGGPTIVLKVSPEELKALEKAGVEIEKIEKNEDGELYITLTPEALKKAGFESAGGSAGGSAGG [r7_587_TrROS_Hall]	2.97 ± 0.11 kcal/mol	2.91 ± 0.057 kcal/mol	2.85 ± 0.13 kcal/mol
SAGGSAGGSAGGPVRLLVLEVPVENVEEVVRRLEALGSVRPVRVERLPGDRYRVLVVSPLSAGGSAGGSAGG [r7_589_TrMRF]	1.46 ± 0.056 kcal/mol	1.54 ± 0.05 kcal/mol	1.3 ± 0.046 kcal/mol
SAGGSAGGSAGGPWITIPLPPGEEYKIENKGNGKEQEINPNDGSIVIPNIPPDNAKVERESAGGSAGGSAGG [r7_200_TrROS]	0.232 ± 0.14 kcal/mol	-0.177 ± 0.24 kcal/mol	0.179 ± 0.041 kcal/mol
SAGGSAGGSAGGPWYVRIEYTPPNGNKETFIIPSPEEIDEWAEPFGVPVKIEPIPPGDPISAGGSAGGSAGG [r7_456_TrROS]	0.736 ± 0.091 kcal/mol	0.604 ± 0.1 kcal/mol	0.801 ± 0.02 kcal/mol
SAGGSAGGSAGGPYEKAVEAAKALGSEDKPITIKLPNGTTVTLKPSELPSLPYEDPIVLLSAGGSAGGSAGG [r7_863_JUSTAS]	0.353 ± 0.17 kcal/mol	0.259 ± 0.18 kcal/mol	0.367 ± 0.093 kcal/mol
SAGGSAGGSAGGQLKLKLKVKVTTRVRDPATGKTYTVTEEVEVTVELEFPPPPLPPGFKSAGGSAGGSAGGS [r10_1026_TrROS_Hall]	3.64 ± 0.21 kcal/mol	4.2 ± 0.17 kcal/mol	2.7 ± 0.22 kcal/mol
SAGGSAGGSAGGSAELLEVLEVTKTGSGYTVKVLERSPELGPSVRTESFPADDTSVLLLSAGGSAGGSAGGS [r4_253_JUSTAS]	-0.0527 ± 0.1 kcal/mol	-0.384 ± 0.22 kcal/mol	-0.00295 ± 0.088 kcal/mol
SAGGSAGGSAGGSAMTLLSEEELPDGSRRVLMRFPDGTRMELTVHPDGSVEERVTPPAASAGGSAGGSAGGS [r4_483_JUSTAS]	2.72 ± 0.086 kcal/mol	2.904 ± 0.021 kcal/mol	2.28 ± 0.065 kcal/mol
SAGGSAGGSAGGSDDPDGKPKPQIPPIKVEPIPIKDPNGWSIEIYYFPWNGMLIISFYNSAGGSAGGSAGGS [r4_305_TrROS]	4.26 ± 0.2 kcal/mol	4.34 ± 0.12 kcal/mol	3.3 ± 0.22 kcal/mol
SAGGSAGGSAGGSDGALIFIIHIKMEMELEPNPDGPPKWDMDWDIEPTWIQIDDPEDFKSAGGSAGGSAGGS [r4_450_TrROS]	2.19 ± 0.21 kcal/mol	2.48 ± 0.15 kcal/mol	1.59 ± 0.13 kcal/mol
SAGGSAGGSAGGSDKDPDKMKPKPVFEMEIVTYEWEKDGDGDWEPLSVEVQRIRVYAMDSAGGSAGGSAGGS [r4_288_TrROS]	4.19 ± 0.19 kcal/mol	4.51 ± 0.23 kcal/mol	3.13 ± 0.14 kcal/mol

Source: the supplement of paper PMC12764529
